Reference: PMC4956616, “Structural Insights into Arl1-Mediated Targeting of the Arf-GEF BIG1 to the trans-Golgi” (Cell Reports, 2016)
Values belong to the binder of their own block, whether it stands above or below them.

B2: His6-DCB^Δ51–71 (human BIG1 residues 1–228 with a deletion of residues 51–71 inclusive) (domain or fragment, UniProt Q9Y6D6 1-228, looked up)
chain: MYEGKKTKNMFLTRALEKILADKEVKKAHHSQLRKACEVALEEIKAETEKTNFIEADKYFLPFELACQSKCPRIVSTSLDCLQKLIAYGHLTGNAPDSTTPGKKLIDRIIETICGCFQGPQTDEGVQLQIIKALLTAVTSQHIEIHEGTVLQAVRTCYNIYLASKNLINQTTAKATLTQMLNVIFARMENQALQEAKQMEKERHRQH
notes: also called DCB^((Δ51–71) BIG1); source: E. coli BL21-(DE3)-RIPL, co-expressed with GST-Arl1^Q71L, purified (glutathione-Sepharose, TEV release, Superdex 75)

Tests used:
[1] = biological target: the molecule itself; experiment: SEC-MALS; MBP-tagged DCB^BIG1 proteins on Superdex-75 HR10/300, 0.5 ml/min, PBS pH 7.5, 150 mM NaCl, 5 mM MgCl2, 0.001% Triton X-100; dimer to monomers
[2] = biological target: the molecule itself; experiment: crystal structure; Arl1^Q71L-GTP/Mg2+/DCB^Δ51–71, space group C2, one complex per asymmetric unit, 2.3 Å, molecular replacement
[3] = biological target: T1, His6-tagged BIG2 N-terminal fragment (1–216) (human, UniProt Q9Y6D5 1-216); experiment: pull-down; 2 nM GST-Arl1 loaded with GMP-PNP or GDP mixed with 2 nM His6-tagged protein in 500 μl buffer C (20 mM Tris-HCl, 110 mM KCl, 1 mM DTT, 0.1% Triton X-100) plus 5 mM MgCl2, 4°C 30 min, captured on glutathione-Sepharose; SDS-PAGE, Coomassie; settings: both partners purified
T1 construct: human BIG2, UniProt Q9Y6D5, N-terminal fragment, residues 1-216; also called related region from BIG2; source: E. coli BL21-CodonPlus (DE3)-RIPL, purified (Ni-NTA); not shown: His6, N-terminal, kept
T1 sequence (looked up): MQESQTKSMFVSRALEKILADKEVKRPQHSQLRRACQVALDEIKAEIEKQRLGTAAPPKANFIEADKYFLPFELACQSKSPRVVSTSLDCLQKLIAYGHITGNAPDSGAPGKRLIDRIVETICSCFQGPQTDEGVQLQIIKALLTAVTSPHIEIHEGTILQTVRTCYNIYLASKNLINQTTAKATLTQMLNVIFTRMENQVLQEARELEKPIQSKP

[4] = biological target: B2; experiment: as above; settings: both partners purified
[5] = biological target: T2, His6-DCB^BIG1 (human BIG1 residues 1–228) (human, UniProt Q9Y6D6 1-228); experiment: as above; settings: both partners purified
T2 construct: also called DCB domain; source: E. coli BL21-CodonPlus (DE3)-RIPL, purified (Ni-NTA); not shown: His6, N-terminal, kept
T2 sequence (looked up): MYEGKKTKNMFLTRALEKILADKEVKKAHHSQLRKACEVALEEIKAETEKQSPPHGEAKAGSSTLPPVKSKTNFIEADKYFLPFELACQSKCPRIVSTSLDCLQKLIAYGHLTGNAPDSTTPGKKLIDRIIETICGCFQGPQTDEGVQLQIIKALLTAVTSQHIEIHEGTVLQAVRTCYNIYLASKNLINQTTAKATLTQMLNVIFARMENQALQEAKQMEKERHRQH

B1: MBP-tagged DCB^BIG1 (wild type) (domain or fragment, human, UniProt Q9Y6D6 1-228, looked up)
chain: MYEGKKTKNMFLTRALEKILADKEVKKAHHSQLRKACEVALEEIKAETEKQSPPHGEAKAGSSTLPPVKSKTNFIEADKYFLPFELACQSKCPRIVSTSLDCLQKLIAYGHLTGNAPDSTTPGKKLIDRIIETICGCFQGPQTDEGVQLQIIKALLTAVTSQHIEIHEGTVLQAVRTCYNIYLASKNLINQTTAKATLTQMLNVIFARMENQALQEAKQMEKERHRQH
notes: Expected monomer 69 kDa, measured average 129 kDa; also called MBP-DCB^BIG1; not shown: MBP, N-terminal, kept
stoichiometry N [1]: 2

Binder: B2
binding result [2]: binds

binding result [3]: binds
binding result [4]: binds
binding result [5]: binds
B3: GST-Arl1^ΔN14 (human Arl1 residues 15–181), loaded with GMP-PNP or GDP (domain or fragment, UniProt P40616 15-181, looked up)
chain: TREMRILILGLDGAGKTTILYRLQVGEVVTTIPTIGFNVETVTYKNLKFQVWDLGGQTSIRPYWRCYYSNTDAVIYVVDSCDRDRIGISKSELVAMLEEEELRKAILVVFANKQDMEQAMTSSEMANSLGLPALKDRKWQIFKTSATKGTGLDEAMEWLVETLKSRQ
notes: human Arl1, UniProt P40616, residues 15-181 (lacks the N-terminal amphipathic helix, residues 1-14); it was loaded with nucleotide (GMP-PNP or GDP) in vitro; also called Arl1^GTP; GST-Arl1^GMP-PNP; source: E. coli BL21-CodonPlus (DE3)-RIPL, purified (glutathione-Sepharose); not shown: GST, N-terminal, kept
